# IntAct's records for PubMed 23624404
# Target: rad51_yeast RAD51 (UniProt P25454)
# Sequence (P25454 whole entry): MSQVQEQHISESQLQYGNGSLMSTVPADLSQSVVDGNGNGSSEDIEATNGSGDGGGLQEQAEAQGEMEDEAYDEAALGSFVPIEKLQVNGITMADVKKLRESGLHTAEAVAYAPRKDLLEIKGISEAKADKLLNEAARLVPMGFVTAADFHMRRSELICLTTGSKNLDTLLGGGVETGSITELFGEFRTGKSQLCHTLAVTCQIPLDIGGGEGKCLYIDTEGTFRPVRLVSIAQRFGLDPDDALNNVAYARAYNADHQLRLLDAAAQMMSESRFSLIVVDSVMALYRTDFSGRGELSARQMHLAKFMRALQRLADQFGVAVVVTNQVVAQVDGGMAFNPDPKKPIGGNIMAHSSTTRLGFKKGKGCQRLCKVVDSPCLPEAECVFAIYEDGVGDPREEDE
substance,measurement,value
DNA repair and recombination protein RAD52 (Saccharomyces cerevisiae) (from UniProt P06778) K10R;K11R;K220R,effect of a mutation on the interaction,decreasing interaction strength
